Experimental data: publication PMC10907721

Target: T1, Hop1 CBR WT (Saccharomyces cerevisiae) (UniProt P20050)
T1 sequence: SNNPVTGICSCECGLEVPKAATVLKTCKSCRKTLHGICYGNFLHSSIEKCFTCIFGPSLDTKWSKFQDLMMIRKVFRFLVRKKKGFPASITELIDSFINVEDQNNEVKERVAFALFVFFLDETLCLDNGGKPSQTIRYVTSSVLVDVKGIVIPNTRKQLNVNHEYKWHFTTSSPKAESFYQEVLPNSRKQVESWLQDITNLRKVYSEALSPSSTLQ
Test: EMSA
Conditions: EMSA: 20 mM Tris-HCl pH 7.5, 25 mM NaCl, 2 mM beta-mercaptoethanol, 10% glycerol; 50 nM nucleosome or DNA; 15 min room temperature; 6% TBE-acrylamide gel, 0.2X …

**Q.** For “TGGAGAATCCCGGTGCCGAGGCCGCTCAATTGGTCGTAGACAGCTCTAGCACCGCTTAAACGCACGTACGCGCTGTCCCCCGCGTTTTAACCGCCAAGGGGATTACTCCCTAGTCTCCAGGCACGTGTCAGATATATACATCCTGT (double strand) [Widom 601 mononucleosome (human histones)]”, which Kd is on record?
**A.** 470 nM
